The target in this data set is SARS-CoV-2 nucleocapsid protein (NCAP, N protein) (SARS-CoV-2, UniProt P0DTC9 1-419). In words: EMSA. The note with it: protein: recombinant; tags: N-terminal GFP and His (N-GFP-NCAP-His, pET-28a(+)-TEV) as purified; EMSA text says only recombinant NCAP; chain copies: 2; single strand (legend says 24 bp). Background: A gel shift assay detects complexes by their altered migration in electrophoresis.

As for UGCUUACGGUUUCGUCCGUGUUGC (ssRNA) [5'UTR leader RNA probe], the binding result is on record as “binds”.

The record behind these values is publication PMC8652540.
